{"source": "patent US20240336656A1", "about": "(Bicycle, published 2024)", "binders": {"B1": {"name": "BCY11863 (peptide)", "peptide 1": "{N‑(acid-PEG3)‑N‑bis(PEG3-azide)}-CP[1Nal][dD]CM[hArg]DWSTP[Hyp]WC", "peptide 2": "Ac-C[tBuAla]PE[dK](PYA)PYCFADPY[Nle]CA", "modifications": "linker I:1-I:5-I:15, II:1-II:8-II:15 via TATA; also: heterotandem: one BCY8116 (chain 1) joined through N-(acid-PEG3)-N-bis(PEG3-azide) linker to two BCY8928 (chain 2), triazole via D-Lys(PYA)"}}, "key": {"[1]": {"target": "T1, CD137 (TNFRSF9) on cells (human, UniProt Q07011 24-255)", "T1 sequence (Q07011 24-255)": "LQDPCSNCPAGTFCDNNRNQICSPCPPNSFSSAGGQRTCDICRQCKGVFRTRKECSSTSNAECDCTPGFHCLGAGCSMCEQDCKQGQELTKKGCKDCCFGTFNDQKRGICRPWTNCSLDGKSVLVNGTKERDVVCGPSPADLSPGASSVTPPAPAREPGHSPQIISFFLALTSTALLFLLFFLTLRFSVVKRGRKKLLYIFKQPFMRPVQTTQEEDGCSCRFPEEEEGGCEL", "assay": "cell-based or functional assay"}, "[2]": {"target": "T1, CD137 (TNFRSF9) on cells", "assay": "cell-based or functional assay", "remark": "listed apart in the source"}}, "note": "Starred links: 1 amine or outer side, 2 acyl side, 3 side chain; linkers in the order of their positions; H or OH if unused. Positions of bridges follow the written chain, without caps; N, C: chain ends. Non-standard residues stand in square brackets, D forms with d. Chains are numbered I, II in the order given. No end group written: not given here. PYA = 4-pentynoic acid on Lys NZ, clicked (triazole) to linker azide; TATA = O=C(CC[*:1])N1CN(C(=O)CC[*:2])CN(C(=O)CC[*:3])C1; 1Nal = N[C@@H](Cc1cccc2ccccc12)C(=O)O; Hyp = O=C(O)[C@@H]1C[C@@H](O)CN1; hArg = N=C(N)NCCCC[C@H](N)C(=O)O; tBuAla = CC(C)(C)C[C@H](N)C(=O)O; Nle = CCCC[C@H](N)C(=O)O", "data": [{"binder": "B1", "values": [{"measurement": "EC50 (nM) of fold induction over background, CD137 reporter assay, coculture with CT26#7 (mouse)", "setting": "[1]", "value": 0.14, "unit": "nM"}, {"measurement": "EC50 (nM) of fold induction over background, CD137 reporter assay, coculture with HT1376 (human)", "setting": "[1]", "value": 0.52, "unit": "nM"}, {"measurement": "EC50 (nM) of fold induction over background, CD137 reporter assay, coculture with MC38#13 (mouse)", "setting": "[1]", "value": 0.31, "unit": "nM"}, {"measurement": "EC50 (nM) of fold induction over background, CD137 reporter assay, coculture with MDA-MB-468 (human)", "setting": "[1]", "value": 0.23, "unit": "nM"}, {"measurement": "EC50 (nM) of fold induction over background, CD137 reporter assay, coculture with NCI-H292 (human)", "setting": "[1]", "value": 0.28, "unit": "nM"}, {"measurement": "EC50 (nM) of fold induction over background, CD137 reporter assay, coculture with NCI-H322 (human)", "setting": "[1]", "value": 0.33, "unit": "nM"}, {"measurement": "EC50 (nM) of fold induction over background, CD137 reporter assay, coculture with T47D (human)", "setting": "[1]", "value": 0.42, "unit": "nM"}, {"measurement": "EC50 of IFNγ secretion, human PBMC co-culture with 4T1-D02 (mouse)", "setting": "[2]", "value": 0.04, "unit": "nM"}, {"measurement": "EC50 of IFNγ secretion, human PBMC co-culture with H322 (human)", "setting": "[2]", "value": 0.85, "unit": "nM"}, {"measurement": "EC50 of IFNγ secretion, human PBMC co-culture with MC38 # 13 (mouse)", "setting": "[2]", "value": 0.17, "unit": "nM"}, {"measurement": "EC50 of IFNγ secretion, human PBMC co-culture with T-47D (human)", "setting": "[2]", "value": 0.08, "unit": "nM"}, {"measurement": "EC50 of IL-2 secretion, human PBMC co-culture with 4T1-D02 (mouse)", "setting": "[2]", "value": 0.16, "unit": "nM"}, {"measurement": "EC50 of IL-2 secretion, human PBMC co-culture with H322 (human)", "setting": "[2]", "value": 0.84, "unit": "nM"}, {"measurement": "EC50 of IL-2 secretion, human PBMC co-culture with HT1376 (human)", "setting": "[2]", "value": 0.39, "unit": "nM"}, {"measurement": "EC50 of IL-2 secretion, human PBMC co-culture with MC38 # 13 (mouse)", "setting": "[2]", "value": 0.25, "unit": "nM"}, {"measurement": "EC50 of IL-2 secretion, human PBMC co-culture with T-47D (human)", "setting": "[2]", "value": 0.2, "unit": "nM"}]}]}
